The target in the series is T1, LsrR (Escherichia coli DCM5 (mammary pathogenic)) (UniProt Q8XAY6).
T1 sequence: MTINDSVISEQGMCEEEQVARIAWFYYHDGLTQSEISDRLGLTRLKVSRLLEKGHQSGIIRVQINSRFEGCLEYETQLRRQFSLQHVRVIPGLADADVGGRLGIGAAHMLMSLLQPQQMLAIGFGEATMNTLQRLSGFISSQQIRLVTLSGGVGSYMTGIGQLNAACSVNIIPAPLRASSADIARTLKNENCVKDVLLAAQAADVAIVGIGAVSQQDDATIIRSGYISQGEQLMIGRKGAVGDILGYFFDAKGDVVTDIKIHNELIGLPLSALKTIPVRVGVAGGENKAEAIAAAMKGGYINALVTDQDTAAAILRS
Nature of the series: EMSA. The conditions noted are these: 5x binding buffer (4 µL) […]. For orientation: A gel shift assay detects complexes by their altered migration in electrophoresis.

Take “TCCGCAAAAGTTCACGTTGGCTTTAGTTATTCGAGTTGAGAAACTCTCGAAACGGGCAGTGACTTCAAGGGTTAAAAGAGGTGCCGCTCCGTTTCTGTGAGCAATTATCAGTCAGAATGCTTGATAGGGATAATCGTTCATTGCTATTCTACCTATCGCCATGAACTATCGTGGCGATGGAGGATGGATA (double strand) [p-oxyR]”: the binding result is given as “no binding”.

For the origin of these results see article PMC8487509.
